System: MS2 coat protein
Assay: apparent KD of MS2 coat protein; higher = weaker reporter binding
Conditions: Eterna round: R107
Summary of the method: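 The buffer was 100 mM Tris-HCl pH 7.5 with 80 mM KCl and 4 mM MgCl2, used without or with constant ligand. In it, RNA switches transcribed on-chip from Illumina sequencing clusters were titrated with SNAP-549-labelled MS2 coat protein in twofold steps from 0.7 or 1.5 nM to 3 µM. Apparent KD for each design is the median of its normalised cluster binding-curve fits.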

[1] = input ligand: theophylline 20 uM
[2] = input ligand: theophylline 2 mM
[3] = input ligand: tryptophan 2.4 mM

## UGGCAGUACAUGGGUUACUGCCAAGGUGAUACCAGCAUCGAAAGAUGCCCUUGGCAGCACCAACAUGAGGAUCACCCAUGUAAUA [(MT)''-(M)'-(T')-(Theo)-(Ms2)_Design1/22_8]
Input ligand: arginine 13.2 mM
  apparent KD of MS2 coat protein: 68.5 nM
Input ligand: none
  apparent KD of MS2 coat protein: 234 nM
[1]
  apparent KD of MS2 coat protein: 210 nM
[2]
  apparent KD of MS2 coat protein: 53.9 nM
[3]
  apparent KD of MS2 coat protein: 247 nM

## CCGGUUAGGACGGCCGCCACUGUGGCUACGGUACAUGAGGAUCACCCAUGUUUGUGGUUGAUCUACAGGACCGGGUCCUGACACG [Eronri]
Input ligand: arginine 13.2 mM
  apparent KD of MS2 coat protein: 124 nM
Input ligand: none
  apparent KD of MS2 coat protein: 247 nM
[1]
  apparent KD of MS2 coat protein: 1210 nM
[2]
  apparent KD of MS2 coat protein: 806 nM
[3]
  apparent KD of MS2 coat protein: 247 nM

## UGGCAAGAGGGAAGGAGCGUCAGCAGAGUAACAUGAGGAUCACCCAUGUAGCACGUGGUGUGACAGGUAGGUCGCCCUCUGCCGU [SS-ArgB13]
Input ligand: arginine 13.2 mM
  apparent KD of MS2 coat protein: 28.5 nM
Input ligand: none
  apparent KD of MS2 coat protein: 32.4 nM
[1]
  apparent KD of MS2 coat protein: 77.1 nM
[2]
  apparent KD of MS2 coat protein: 46 nM
[3]
  apparent KD of MS2 coat protein: 28.3 nM

## AGGACAUCGAGAAGGAGCGCAUCCAAACCACACAUGAGGAUCACCCAUGUAUAAAUAUGCAUGCAGGUAGGUCGCUCGGCGUCUU [Leanerin]
Input ligand: arginine 13.2 mM
  apparent KD of MS2 coat protein: 57.5 nM
Input ligand: none
  apparent KD of MS2 coat protein: 99 nM
[1]
  apparent KD of MS2 coat protein: 121 nM
[2]
  apparent KD of MS2 coat protein: 85.7 nM
[3]
  apparent KD of MS2 coat protein: 87.4 nM

## UGUACCAUGUCGGCCGCCACUCAUGAUAAACAUGAGGAUCACCCAUGUAGCGUCAAAGACGCUAUGAGGACCGGGACAUGGUACU [TryBS Zipper 2 #StaticStem #Zipper]
Input ligand: arginine 13.2 mM
  apparent KD of MS2 coat protein: 32.5 nM
[1]
  apparent KD of MS2 coat protein: 49.2 nM
[2]
  apparent KD of MS2 coat protein: 45 nM

## UAACAUGAGGAUCACCCAUGUAUACUAAGUCGAGGACCGGUACGGCCGCCACUCGAAAUUGAAGAAUUGGCGGUAAAUGUAAGUA [JR_ExcTryptoA_Sub019]
Input ligand: arginine 13.2 mM
  apparent KD of MS2 coat protein: 12.6 nM
[1]
  apparent KD of MS2 coat protein: 15.9 nM
[2]
  apparent KD of MS2 coat protein: 14.3 nM

## UAUAUAUAACAUGAGGAUCACCCAUGUAAACGAGGACCGGUACGGCCGCCACUCGGCCGGCAAGGGAGAGGACGGGAAACCGUCG [ETA NP+V+V2 #26]
Input ligand: arginine 13.2 mM
  apparent KD of MS2 coat protein: 12.1 nM
Input ligand: none
  apparent KD of MS2 coat protein: 12.8 nM
[1]
  apparent KD of MS2 coat protein: 23.1 nM
[2]
  apparent KD of MS2 coat protein: 23 nM
[3]
  apparent KD of MS2 coat protein: 24.4 nM

## AUGCAUAGCACGGCCGCCACUCCAUGUAAACAUGAGGAUCACCCAUGUAAUUUGGAUGUUUUAUAGAGGACCGGGUGAAAUGCAA [JR_ExcTryptoB_Sub004]
Input ligand: arginine 13.2 mM
  apparent KD of MS2 coat protein: 8.42 nM
[1]
  apparent KD of MS2 coat protein: 10.1 nM
[2]
  apparent KD of MS2 coat protein: 10.3 nM

## AUAAAUAAUAAAUAUAAUAAAGUGGGUGAACGAGGACCGGUACGGCCGCCACUCGGACAUGAGGAUCACCCAUGUCCAUGUGAAA [AstrosExtTry#3]
Input ligand: arginine 13.2 mM
  apparent KD of MS2 coat protein: 9.94 nM
Input ligand: none
  apparent KD of MS2 coat protein: 17.3 nM
[1]
  apparent KD of MS2 coat protein: 19.1 nM
[2]
  apparent KD of MS2 coat protein: 19.3 nM
[3]
  apparent KD of MS2 coat protein: 40.1 nM

## GCUAGUGGCAGAAGGAGCGAGGCCCGCGCACAUAACAUGAGGAUCACCCAUGUGGCGAGACCUCAGGUAGGUCGCUGCCACUAGC [EAB NP+V2 #1]
Input ligand: arginine 13.2 mM
  apparent KD of MS2 coat protein: 12 nM
Input ligand: none
  apparent KD of MS2 coat protein: 11.4 nM
[1]
  apparent KD of MS2 coat protein: 25.8 nM
[2]
  apparent KD of MS2 coat protein: 14.2 nM
[3]
  apparent KD of MS2 coat protein: 12.4 nM

## GGGCGCUAUCCCGCGAGGGAUAGCGUUCGACGAGGACCGGUACGGCCGCCACUCGAACGAGUGGGUACAUGAGGAUCACCCAUGU [Gaa]
Input ligand: arginine 13.2 mM
  apparent KD of MS2 coat protein: 26.3 nM
Input ligand: none
  apparent KD of MS2 coat protein: 33.5 nM
[1]
  apparent KD of MS2 coat protein: 50.9 nM
[2]
  apparent KD of MS2 coat protein: 33.3 nM
[3]
  apparent KD of MS2 coat protein: 25.9 nM

## AAACUGGGUGUAAAAUAAAUAAUCACUGAUACCAGACUAUUUUAUGUCCCUUGGCAGCAGAAACAUGAGGAUCACCCAUGUAAUA [JR_Nu_ExcTheophyA_Sub025]
Input ligand: arginine 13.2 mM
  apparent KD of MS2 coat protein: 21.2 nM
[1]
  apparent KD of MS2 coat protein: 25.3 nM
[3]
  apparent KD of MS2 coat protein: 26.7 nM

## AAGAAAACAUGAGCAAAGCUCAUGUGCGAAGGAGCGGCGGAAACGCCAGGUAGGUCGCGCACAUGAGCAUCAGCCAUGUGUAUCA [Omei Arginine B SS A v3]
Input ligand: arginine 13.2 mM
  apparent KD of MS2 coat protein: 43.5 nM
Input ligand: none
  apparent KD of MS2 coat protein: 36.7 nM
[1]
  apparent KD of MS2 coat protein: 76.9 nM
[2]
  apparent KD of MS2 coat protein: 101 nM
[3]
  apparent KD of MS2 coat protein: 19.4 nM

## AUAUGAUCAUACGAUACCAGAAAUGGUAUUCCUUUAUUUCUUACAUGAGGAUCACCCAUGUUCCCUUGGCAGCGUAUGAUCAUAU [ETHB #3]
Input ligand: arginine 13.2 mM
  apparent KD of MS2 coat protein: 125 nM
[1]
  apparent KD of MS2 coat protein: 327 nM
[3]
  apparent KD of MS2 coat protein: 303 nM

## GCGCUCGACAGAAGGAGCGGCGACGUCGGUGUCAGGAGGCACAUGAGGAUCACCCAUGUCAGCCAGGUAGGUCGCUGUCGAUCGC [Arquce]
Input ligand: arginine 13.2 mM
  apparent KD of MS2 coat protein: 22.8 nM
Input ligand: none
  apparent KD of MS2 coat protein: 37.3 nM
[1]
  apparent KD of MS2 coat protein: 41.9 nM
[2]
  apparent KD of MS2 coat protein: 40.1 nM
[3]
  apparent KD of MS2 coat protein: 36.8 nM
